According to patent US11180777B2, “Cell fraction and method of generating a cell fraction containing a protein of interest” (Corning Incorporated, priority 2015, dated 2021):

T1: Aldehyde Oxidase (AO) (Homo sapiens, UniProt Q06278)
T1 construct: made in house; host or cells: HEK293 cells, transfected by electroporation; supernatant (soluble fraction) after the 37,000 rpm spin
T1 sequence (Q06278 1-1338): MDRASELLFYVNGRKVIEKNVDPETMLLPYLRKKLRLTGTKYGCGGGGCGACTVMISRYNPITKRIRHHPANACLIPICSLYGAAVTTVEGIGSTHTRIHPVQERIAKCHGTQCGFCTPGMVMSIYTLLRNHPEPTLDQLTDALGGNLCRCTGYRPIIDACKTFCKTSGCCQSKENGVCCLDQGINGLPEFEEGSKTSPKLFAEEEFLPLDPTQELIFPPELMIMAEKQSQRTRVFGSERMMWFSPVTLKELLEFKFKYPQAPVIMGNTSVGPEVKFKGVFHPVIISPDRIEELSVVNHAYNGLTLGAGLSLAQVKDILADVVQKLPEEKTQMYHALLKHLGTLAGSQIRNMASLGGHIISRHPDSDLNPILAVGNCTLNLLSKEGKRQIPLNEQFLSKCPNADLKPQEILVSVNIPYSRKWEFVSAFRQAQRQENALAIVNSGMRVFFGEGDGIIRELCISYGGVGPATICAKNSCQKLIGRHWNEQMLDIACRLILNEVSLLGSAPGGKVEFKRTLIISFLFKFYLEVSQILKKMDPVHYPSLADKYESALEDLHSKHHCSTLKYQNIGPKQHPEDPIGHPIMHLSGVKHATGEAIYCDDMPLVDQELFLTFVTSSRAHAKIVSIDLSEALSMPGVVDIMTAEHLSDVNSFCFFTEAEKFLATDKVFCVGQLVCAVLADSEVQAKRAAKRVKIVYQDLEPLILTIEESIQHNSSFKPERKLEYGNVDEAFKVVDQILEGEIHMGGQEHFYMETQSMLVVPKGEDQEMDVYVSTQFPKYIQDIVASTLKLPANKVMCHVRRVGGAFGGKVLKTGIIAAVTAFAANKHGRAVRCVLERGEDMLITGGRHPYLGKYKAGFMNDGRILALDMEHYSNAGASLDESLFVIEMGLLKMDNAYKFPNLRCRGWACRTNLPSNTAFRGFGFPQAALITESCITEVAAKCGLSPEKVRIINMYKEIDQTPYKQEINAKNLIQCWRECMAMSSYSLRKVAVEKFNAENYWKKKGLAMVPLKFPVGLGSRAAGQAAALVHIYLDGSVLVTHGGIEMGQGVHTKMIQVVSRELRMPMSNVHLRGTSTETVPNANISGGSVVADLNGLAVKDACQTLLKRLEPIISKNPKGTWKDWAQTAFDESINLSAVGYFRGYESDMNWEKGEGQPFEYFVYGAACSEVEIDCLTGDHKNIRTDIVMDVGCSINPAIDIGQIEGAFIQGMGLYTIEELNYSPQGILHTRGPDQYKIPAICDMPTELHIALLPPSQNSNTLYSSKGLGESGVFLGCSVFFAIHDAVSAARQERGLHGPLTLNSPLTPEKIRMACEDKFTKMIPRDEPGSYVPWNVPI

T2: UGT1A1 (Homo sapiens, UniProt P22309)
T2 construct: made in house; host or cells: HEK293 cells, electroporated with UGT1A1 cDNA; microsomes (membrane pellet)
T2 sequence (P22309 26-533): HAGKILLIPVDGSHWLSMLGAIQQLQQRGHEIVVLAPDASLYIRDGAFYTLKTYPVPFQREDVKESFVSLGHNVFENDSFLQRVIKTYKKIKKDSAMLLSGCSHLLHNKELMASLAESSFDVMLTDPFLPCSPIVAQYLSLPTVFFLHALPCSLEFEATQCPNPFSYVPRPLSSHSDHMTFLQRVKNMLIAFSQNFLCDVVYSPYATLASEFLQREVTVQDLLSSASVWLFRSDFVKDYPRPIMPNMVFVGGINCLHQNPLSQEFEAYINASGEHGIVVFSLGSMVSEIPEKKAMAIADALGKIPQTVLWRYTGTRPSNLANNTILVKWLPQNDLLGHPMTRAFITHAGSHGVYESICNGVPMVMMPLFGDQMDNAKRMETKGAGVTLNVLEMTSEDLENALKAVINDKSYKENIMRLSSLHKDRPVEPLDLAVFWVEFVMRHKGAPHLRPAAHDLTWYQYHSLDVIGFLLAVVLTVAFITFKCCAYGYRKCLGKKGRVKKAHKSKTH

B1: UGT1A1: UGT1A1 expressed using the electroporation method (HEK293 microsomes) (protein, UniProt P22309 26-533, looked up)
UDP-glucuronosyltransferase …: T2 sequence (P22309 26-533)

Columns and labels:
Aldehyde Oxidase (AO) = target: T1, Aldehyde Oxidase (AO); experiment: AO assay with probe substrate phthalazine (HPLC); format: biochemical; conditions: rAO prepared with transfected HEK293 cells
Method: (§1) The recombinant AO and UGT1A1 enzymes were prepared as following. Briefly, the cells pellets obtained from the cell recovery step were washed once with phosphate buffered saline (PBS) and centrifuged at 1500 rpm for 10 min at 4° C. The resulting pellet was diluted with appropriate amount of 0.1 M potassium phosphate buffer, and transferred into Dounce Homogenizer followed with 10 stokes. The cell lysate was centrifuged at 2600 rpm for 10 minutes at 4° C. The supernatant was transferred to a new set of centrifuge tube and spun at 37,000 rpm for 15 minutes at 4° C. For recombinant AO, the supernatant (soluble fraction) was aliquoted and stored at −80° C. until use. For UGT1A1 microsomes, the pellet was resuspended in an appropriate amount of 0.1M Tris buffer and homogenized with a Dounce homogenizer with 10 strokes. The UGT1A1 microsomes were aliquoted and stored at −80° C. until use.
AO assays are carried out at 37° C. in 25 mM potassium phosphate buffer (pH7.4) containing 0.1 mM EDTA. 170 μL assay buffer was mixed with 20 μL 1 mM phthalazine and prewarmed to 37° C. in heat block. The reaction is initiated with 10 μL 5 mg/mL AO sample. The cap needs to be opened for oxygen circulation. After incubation, the reaction was stopped by the addition of 100 ul 94% acetonitrile/6% glacial acetic acid. The reaction mix was centrifuged (10,000×g) for 3 minutes and supernatant was analyzed on HPLC.

UGT1A1 = target: T2, UGT1A1; experiment: UGT1A1 assay (beta-estradiol glucuronidation, HPLC); format: biochemical; conditions: electroporation method versus BEVs system
Method: as §1
A 0.2 ml reaction mixture containing 1.0 mg/ml protein, 2 mM uridine diphosphoglucuronic acid (UDPGA), 10 mM magnesium chloride, 0.025 mg/ml alamethicin and 150 uM beta-estradiol in 50 mM Tris (pH 7.5) was incubated at 37° C. for 30 minutes. After incubation, the reaction was stopped by the addition of 50 ul 94% acetonitrile/6% glacial acetic acid. The reaction mix was centrifuged (10,000×g) for 3 minutes and supernatant was analyzed on HPLC.

Molecule	AO kinetics with phthalazine (Aldehyde Oxidase (AO))	UGT1A1 activity relative to UGT1A1 expressed with the BEVs system (UGT1A1) [×]
Aldehyde Oxidase (AO): recombinant Phase 1 drug metabolizing enzyme Aldehyde Oxidase prepared with transfected HEK293 cells (soluble fraction)	exhibited standard michaelis-mention kinetics curve	–
B1	–	5
